Among the data in paper PMC10794413 are ATPase rate of Hsp90 with freely added Cdc37 and equimolar Ste11: Cdc37's reducing effect is abrogated values, retold here.

This test deals with Hsp90 (hsp82 gene from Saccharomyces cerevisiae) with a C-terminal coiled-coil domain (Saccharomyces cerevisiae).

B1: free Cdc37 with the S14E phosphomimic (natural protein)
chain: MAIDYSKWDKIELEDDSDVEVHPNVDKKSFIKWKQQSIHEQRFKRNQDIKNLETQVDMYSHLNKRVDRILSNLPESSLTDLPAVTKFLNANFDKMEKSKGENVDPEIATYNEMVEDLFEQLAKDLDKEGKDSKSPSLIRDAILKHRAKIDSVTVEAKKKLDELYKEKNAHISSEDIHTGFDSSFMNKQKGGAKPLEATPSEALSSAAESNILNKLAKSSVPQTFIDFKDDPMKLAKETEEFGKISINEYSKSQKFLLEHLPIISEQQKDALMMKAFEYQLHGDDKMTLQVIHQSELMAYIKEIYDMKKIPYLNPMELSNVINMFFEKVIFNKDKPMGKESFLRSVQEKFLHIQKRSKILQQEEMDESNAEGVETIQLKSLDDSTELEVNLPDFNSKDPEEMKKVKVFKTLIPEKMQEAIMTKNLDNINKVFEDIPIEEAEKLLEVFNDIDIIGIKAILENEKDFQSLKDQYEQDHEDATMENLSLNDRDGGGDNHEEVKHTADTVD
The molecule B1 returned an ATPase rate of Hsp90 with freely added Cdc37 and equimolar Ste11: Cdc37's reducing effect is abrogated of 1.1 ATP/min.
